# Assay results: the DeepSol protein solubility set
# Assay: soluble on expression in E. coli; label from the status in PepcDB or PDB records
row,Sequence,soluble on expression in E. coli
1,MGSDKIHHHHHHMPRTILKDEHWTRLKPILLELNIYDKGNLRNTVEGVLYRMRVGCPWRDLPEHFGKPNTVYKAYQRWFRSNKLIALFALLIKDSDCEWVFIDGTHIKAHQHSSIGHENMQGISKSVAGRATKIHLAVDAHGNPITFILSDGTTHDVKVAPDLIDKDLSDTDILCADKGYDSDALRTHIKQAGCFNNIPRRRNTKSTNNHMDWHLYKTRHLVENAFAKLKHYRAVATRFDKLKQSYENTVALACAYLWLKL,not soluble
2,SNAMKLMDVHVLFSGGKDSSLSAVILKKLGYNPHLITINFGVIPSYKLAEETAKILGFKHKVITLDRKIVEKAADMIIEHKYPGPAIQYVHKTVLEILADEYSILADGTRRDDRVPKLSYSEIQSLEMRKNIQYITPLMGFGYKTLRHLASEFFILEEIKSGTKLSSDYEAEIRHILKERGESPEKYFPEHKQTRVVGLKKEI,soluble
3,MGSDKIHHHHHHMTETTLPPLIQQMLQPGFYPHEVTEPIQLIQTHVSSVLLTGEYAYKLKKPVNFGFLDFSTLEKRQHFCQEELRLNQRGAAELYLEVLPISLVGEQYTLGGTGEAVEYVLKMRQFPQDGLFSELFAQGKLTESHLEELGKVVAQYHAKTETNDYIRSFGEVPQVQAAFDENYQQTEKYIGGPQTQLQFDETKAYTERFFAEKQELFQRRIQNNYIRECHGDLHLRNICLWQDKILLFDCIEFNEPFRFVDVMFDVAYAVMDLDAQQRPDLSNAYLNTYLEQTGDWEGLEVLPIYLNRQSYVRAKVTSFLLDDPSVPATVKEEATKTASTYYKLAWEYTKPKQGKLILMSGLSGSGKSTTAKYLARQLDAIQIRSDAVRKHLGGISLWERGGDDLYTPEMTQKTYARLLNLGTILANQGYTVILDAKYDKQNLRQEAIAQAEKHHLPLQIIHCTAPIEVIQERLIKRTGDIADATVDLLSSQLQQTEPFTDQEKPYVQTWDTTQPPHVIGNR,not soluble
4,LLLYIHGFNSSPLSMKANLMREYCAQHRPDIKVIVPQLPCFPEQAAQLLLDIVEQYKDDYNIGLVGSSLGGYMSTWLNAKYGFKAVVVNPAVKPYELLVDYLGEQTNPYTRETYTLEACHIDELKALDVQSIASPHSFWLLQQTEDEVLDYRQAVDKFAKAKQTVEQGGDHSFVGFERYPAKIIEFLE,not soluble
5,MKTRINYAKASPEAFKAVMALENYVQSSGLEHRFIHLIKLRASIINGCAFCVDMHVKESRHDGLSEQWINLMSVWRESPVYTEQERALLGWVDAVTKIAETGAPDDAFETLRAHFSDEEIVKITVAIGAINTWNRIAVGFRSQHPVEAAAKAA,soluble
6,MGSDKIHHHHHHMAKKAKVQFECQSCGYVSPKYLGRCPNCGQWNSMVEEVIQDTSDRRARVSLTGKKTQPQRLSEVIPKKEPRVKTELVELNRVLGGGVVPGSLVLIGGDPGIGKSTLLLQVSQQLAATGGTVLYVSGEESAEQIKLRAERLGTVNETFYLYAETDMHEISRAIEKLEPDYVIIDSIQTMTQPDVTSVAGSVSQVRETTAELLKLAKTNGIAIFIVGHVTKEGSIAGPRMLEHMVDTVLYFEGDKHHTFRILRAVKNRFGSTNEIGIFEMQTHGLVEVMNPSQVFLEERLEGATGSSIVVAMEGSRPILVEIQALVTPTMFGNAKRTTTGLDFNRVSLIMAVLEKRAGLLLQNQDAYLKAAGGVKINEPAIDLALAISIASSYKEKGTSSSECFIGEIGLTGEIRRVNSIEQRVREAQKLGFTKVYVPKNNLGGWEAPEGIEIIGVSTIGETLRKVFK,not soluble
7,METASKRPKSGAAKKPAAAKARGDGPSYLDGQLLIAMPVMEDERFARSVIYICAHSSEGAMGIIVNRPAGSIDFPELLVQLDIVEKPEQIKLPDHAESMKVLRGGPVETGRGFVLHSSDFFIKDATLPIDDGICLTATVDILKAIAGGTGPKHAILALGYAGWAPGQLENEIQENGWLHCDADADLIFGDDIEEKYDRALHKLGIEPGMLSAEAGHALEHHHHHH,soluble
8,MNRRRKLLIPLLFCGAMLTACDDKSAENAAAMTPEVGVVTLSPGSVNVLSELPGRTVPYEVAEIRPQVGGIIIKRNFIEGDKVNQGDSLYQIDPAPLQAELNSAKGSLAKALSTASNARITFNRQASLLKTNYVSRQDYDTARTQLNEAEANVTVAKAAVEQATINLQYANVTSPITGVSGKSSVTVGALVTANQADSLVTVQRLDPIYVDLTQSVQDFLRMKEEVASGQIKQVQGSTPVQLNLENGKRYSQTGTLKFSDPTVDETTGSVTLRAIFPNPNGDLLPGMYVTALVDEGSRQNVLLVPQEGVTHNAQGKATALILDKDDVVQLREIEASKAIGDQWVVTSGLQAGDRVIVSGLQRIRPGIKARAISSSQENASTESKQ,not soluble
9,MGSDKIHHHHHHMEIDPRAQLIEWESSSLGVKGRMYVYTPPEYHPHGPALPVVYLLRGHEREWVNRREDDSRMGSAIDVYERVRARGEIGPLILAMPGLASTDNRIPGLLADFAAPHLTDAEGIGSGRFATFFFEEVLPLLEREFHAHPQARAITGFSLGGYMAVKAVALHPELFVSVSAYDGSFPYASDNGRRSRRYDTLFTASMFDPALGRPRDPDRLRDHNPICLLMRANRAALRRITWMIQYGPEHIEPWGANFYRGEYLLRALATLGIANATPIAALPDGAHTWAVADRHLEQALPLHYRAFERVMKSDP,not soluble
10,MGSDKIHHHHHHMEFVFGKKVFQSEVRKASDLKPVLAFPEALKEDFDAYYMFRDSFKTDEEAEIIRNAGLRYDYTVIPPNNIGGESIKTYGHYHPEVVRGFTYPEVYQVLEGEALFILQKPSNGKIEDVIVVEGKKWDTVIIPPNYGHVTINPTESDLITANWVCRNFSSIYEPYTKRRGACYYYINGEWVRNRNYDDAPEIRFAKPKNVLDVKGDMYDLVYTIEKLEFLVKPHEHQEIFENAFEVV,not soluble
11,MAYKFLSEDWIKAYAEEWNKNEKLMNDLKNFSASIKYYVEGKENDAVELIIEKGKAVSAGKADPNKRYDFELWASLENWKKLATGEMGPRAAMLTKRLKFKGSMITAMKYMGAFEESLKMMGRVPTVWDV,not soluble
12,MPASSTSSPSSKEEDEKHTSADEDVTPTASPSLVKSEVVKEEENDDADRTLTMPSTSQDIQPESSPAHGRSAPSSQEITSPPTVRRVATPLEAAEQEYYYFTTDMINQAALDIEREKEKFDSLITWYKLQRDDVPALGTSSVGNSTAPSYVSEKGSTTPMSSQPSSHQSGTSSTNGAHGGLNGFSCSPFGLENNPRSNDPMQCMSSPVELDEICPTLEDFMSSAASSSTPSTSSAPQMNQNQNTHPNSINHHHQPDTSLLMLNNHHSSPLNQLSFNHQMPSTSNSNPPSNASLKRRATEEFGNDGPMKQAKIEGSENDNNPMRKLEMMANSSNFRGGNTINEVVEASKKDERTLKMEKLDVIGKSVGEEFAQQAREAQMRQMQQAAAAAGSMPPSYPSPGQYPGPMHYPGMPPMMPPGAPFSAGASYPPMGGPFPPNPYGMHPGMTPGGYPMSAPGKMPFGSPSFPQSAPSPAAMAAMQQGRMPGPPMPPHMMTPQQQQHFMQMQQAQMAHFNAQKAAAAAAAAGMSPAARASPMGASPSPHHPHPSQFPPNHPANPMYHHHIMMMRAMHAQGGQPGHPGMMPPGMMPPGMMPPGMMPPGMHPGMAGMPPMHPGMQGMPPMHPGMQGMPGMPHGPPQPPQNPALMVAGNRAGSAEAAAAQMGNPHHPMMGANMWQLTPHYPPPLPASSSSGAGTPVSR,not soluble
13,MSQIISTLNNIDLVTQDKVNLISNMQIQAKYENAEYKSFIDQLIDNLNTTRSIDIYNLFLSLNSEICLNLDTVDNISKIISSYLSILNTNFTRISPSESKQKNQLAEKGINKFLVTMDANFAQMQNQDKLLPNNIDSIIEIVQEVIIFFEKNNLNYNSDFKIQLNKTLRKIKSSLILKDQKNDTYSDKESINQVEATITDQKTIQGSEKWKTLIEKIEVLKALVESERIFETSIVYNDIQNLLVNFDPKEYFPEIFFPLYKKIAPFIGNIHKNIDYYSSSIQWSIAQKMYNIDYKSFLDTLEKMPENNFLNSSSDITKNFFYETSSEVEKTPIEEHKIIADTDAIKEEIVIKQRTNNKKNQNDPVEKISNKIDEDYFEDLFDI,not soluble
14,MGSDKIHHHHHHMSVEQTYSWLRKAGSIDDLAHYIIPLFSGAEKKNWKGILGHLQHHGMFKNIKEGIQTVSKLKEKGFYGHIQKEEQYLKNKWQGPDVPIVTLPVDERNRRIRLEFGSKSGLAFQDKMFLFLSSDLDFGSVSALMTHEYHHVCRLGHLTKEEKDVTLLDTIIMEGLAEYAVYERFGRSQTAEWTTWYTPEQLQALYEKKIAPHRDIKRDNRLFPQLLFGKGYQPKMLGYAVGFNIVKKYLTASKASTADGLSIPAETFLDAML,not soluble
15,MRRFDCTVVAIHDDASLGCRLPGANKALRIQLNAVELPAAEPWRRRAREALEDMLLGKSATIREQGRDARFRILGAAWVTPADCPTCGHTLDAGLALLTIGLASWRDAPDSGQTAEARGQYRFAEEEARARKAGQWRP,soluble
16,MEEDIVRLFYKGSEIILIGTSHISAESADLVRKTIQEENPDTICIEWDQKRYKKNIHPDEWDDTDIVKIIKNKQFPVFIFGVIYKLFQKKVSQDMNSLVGKEFVVAVDESKKLNIKFYLIDRDSSLTFKRAWRMLNFREKVKLPYAFGKIFEGAEETEEEVQNLLESENFEPVFEELKESYPNLWEVFVTERDDYLATKIQNTANGKTVAVLGKAHLKGVSDRLKNNQKSDLQKLEIIPPKK,not soluble
17,MDPELLRQRTAFQKHAATTMAVQNKPTTAPNSHTTYSSEAAKAKKKKSSGPAQNLSKLPDFNNSVSNANALSNATNFSTMAKIVDYMKKRHLNNQQWPLTLQEILDELQIFDLSKRSLAFLQEALPNNPRLIMESEKFAFRPPYKIKGKTSLVAVARKHYQDGKGGILVSDLAECVANYDALLQQVSSEVIVVPTQVNKKKDRVVFYNDKEFTFPELEDDFKALWRHVSVDHLDEKKIEEYLQKKGLDAMKDLTPKVRMQAPLKRKAAKRRFNQKVQNEHMDGVLEDYE,soluble
18,MSSFGHRAFFSCCLLLEGETLHSIKLRKEATYQPQSGWPVRWPIRYPRALPLASHVHPYHMIVKLPHPRTQPRLFLWLSLHWTGIPFLGKPGIGRNRVKSKQFSHFQQSKIKTTMRKKTTNRKQKAERCQYRLVTA,not soluble
19,SNAMQRANREHLEIISLEEISMLVSSDFDLPEVLQHVTAKVATQLKVSVCNIYLREGDEVVLAATHGFDPAFIGKIRIKIGDGITGSVARDGQYISLSRASQDPRYRYFPELQEEKYNSMLSFPIGDKKEVYGVINLNTTSIRSFHEDEIYFVSIIANLILTAIKLRQQVASSRKAAEASA,soluble
20,MSLRANCLVQTTEWSACSKTCGMGISTRVTNDNASCRLEKQSRLCMVRPCEADLEENIKKGKKCIRTPKISKPIKFELSGCTSMKTYRAKFCGVCTDGRCCTPHRTTTLPVEFKCPDGEVMKKNMMFIKTCACHYNCPGDNDIFESLYYRKMYGDMAEGHHHHHH,not soluble
21,MSLDQAAVCLTICRINQLLSPSLLLKWWKADPSMSLTSPVLQTVTRDQIKAAALKNEIEQFYPKLPRVLAAYREQGINTIPISSKQYPFWLKSIYDPPAVLFAKGDMTLLSKGRKIGIVGTRNPTAYGKQVVNHLTKEICRKGWVIVSGLASGIDGMSHAASIKAKGRTIGVIAGGFQHIYPRENLQLADHMAKHHILLSEHPPETKPQKWHFPMRNRIISGLSEGVIVVQGKEKSGSLITAYQALEQGREVFAVPGSLFDPYAGGPIKLIQQGAKAIWSAEDIFEELPERNVQYTEPFEGHHHHHH,not soluble
22,INFPILDEPLVLSNATILTIEDVSVYSSLVKHFYQYDVDEHLKLFDDKQKSLKATELMLVTDILGYDVNSAPILKLIHGDLENQFNEKPEVKSMVEKLAATITELIAFECLENELDLEYDEIKILELIKALGVKIETQSDTIFEKCFEIIQVYHYLTKKNLLVFVNSGAYLTKDEVIKLCEYINLMQKSVLFLEPRRLYDLPQYVIDKDYFLIGEN,not soluble
